The record followed here is PMC11018115, “The EIN3 transcription factor GmEIL1 improves soybean resistance to Phytophthora sojae”.

This series has as its target T1, GmEIL1 (Glycine max (cv. Suinong 10), UniProt A0A0R4J4Z8 1-610).
T1 sequence: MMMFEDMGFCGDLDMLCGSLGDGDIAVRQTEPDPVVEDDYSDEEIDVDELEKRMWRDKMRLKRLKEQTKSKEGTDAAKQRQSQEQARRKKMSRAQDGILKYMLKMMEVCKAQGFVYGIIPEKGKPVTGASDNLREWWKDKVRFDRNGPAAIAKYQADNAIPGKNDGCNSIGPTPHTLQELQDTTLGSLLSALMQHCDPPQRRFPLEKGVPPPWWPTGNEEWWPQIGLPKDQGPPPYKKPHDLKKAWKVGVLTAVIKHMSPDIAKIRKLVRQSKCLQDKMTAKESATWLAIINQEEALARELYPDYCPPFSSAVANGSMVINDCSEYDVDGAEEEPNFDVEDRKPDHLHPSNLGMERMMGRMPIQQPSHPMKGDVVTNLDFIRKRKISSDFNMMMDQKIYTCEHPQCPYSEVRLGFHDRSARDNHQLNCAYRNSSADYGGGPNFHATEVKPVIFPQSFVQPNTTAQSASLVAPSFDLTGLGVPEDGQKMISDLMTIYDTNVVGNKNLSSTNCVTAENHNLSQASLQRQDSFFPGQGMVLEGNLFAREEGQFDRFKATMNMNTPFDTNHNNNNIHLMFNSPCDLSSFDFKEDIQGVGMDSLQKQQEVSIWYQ
As to the kind of experiment: EMSA; EMSA after Garner and Revzin (1981), chemiluminescent detection; buffer, salt, pH and temperature not stated. The conditions noted are these: protein: recombinant; chain copies: 2; label: digoxigenin-ddUTP (Methods, legend); text also says biotin.

B1: EBS probe (dsDNA)
DNA 1: GTTGTTTGGGATTCAAGGGGCATGTATCTTGAATCC
DNA 2: GGATTCAAGATACATGCCCCTTGAATCCCAAACAAC
Take B1: the binding result was “binds”.

B2: mEBS probe (dsDNA)
DNA 1: GTTGTTTGGGATTCAAGGGGCCCCCCTCTTGAATCC
DNA 2: GGATTCAAGAGGGGGGCCCCTTGAATCCCAAACAAC
Consider B2, for which the binding result is reported as “no binding”.
